In doi:10.1101/2025.05.22.655505 (bioRxiv, 2025):

Assays:
[1] = biological target: Mpox A28 (OPG153), residues 2-361, recombinant antigen (Monkeypox virus; template GenBank …, UniProt A0A7H0DNC4); experiment: ELISA
[2] = biological target: VACV A26 (OPG153), residues 2-361, recombinant antigen (Vaccinia virus strain IHDW (GenBank …, UniProt P24758, strain)); experiment: ELISA

B1: 10M2146, human anti-A28 monoclonal antibody, IgG1 (antibody, V domains shown)
VH: EVQLVQSGAEVKKPGESLKISCKGSGYSFTTHWIGWVRQMPGEGLEWLGIIYPGDSETKYSPSFQGQVTISVDKSINTAYLHWSSLKASDTAMYFCARRPKNYYDASGYYNWLDPWGQGTLVTVSS
VL: EIQMTQSPSTLSASVGDRVTITCRASQSLSTWLAWYQQKPGKAPKLLIYKASILESGVPSRFSASGSGTEFTLTISGLQPDDFATYYCQQYNSYLGAFGQGTKVEIK
**Q.** Does B1 bind [1]?
**A.** binds

**Q.** Does B1 bind [2]?
**A.** binds
